How the values were obtained:
[1] = molecular target: mouse Hck SH3 domain with High Affinity RT loop (HART) (mouse) (UniProt P08103); assay: SPR
[2] = molecular target: wild-type human Hck SH3 domain (human) (UniProt P08631); assay: SPR
[3] = molecular target: wild-type mouse Hck SH3 domain (mouse) (UniProt P08103); assay: SPR
[4] = molecular target: mouse Hck SH3 domain with High Affinity RT loop (HART) (mouse) (UniProt P08103); assay: HDX-MS; SH3 (50 uM) and Nef-Consensus (117 uM) equilibrated at 4 C for at least 110 min in 20 mM Tris-HCl pH 8.3, 100 mM NaCl, 3 mM DTT; 15-fold dilution into D2O buffer; intact-protein MS; SH3 cooperative unfolding rate free and with Nef (slowdown factor)
[5] = molecular target: wild-type mouse Hck SH3 domain (mouse) (UniProt P08103); assay: as above

Sequence of HIV-1 Nef-SF2, untagged (P03407 whole entry): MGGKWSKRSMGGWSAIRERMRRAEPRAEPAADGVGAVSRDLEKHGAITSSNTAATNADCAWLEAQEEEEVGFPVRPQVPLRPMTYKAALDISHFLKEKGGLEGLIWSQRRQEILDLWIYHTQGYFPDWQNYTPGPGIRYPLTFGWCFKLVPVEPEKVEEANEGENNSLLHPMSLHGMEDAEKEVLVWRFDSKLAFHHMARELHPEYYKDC
Sequence of wild-type human Hck SH3 domain (human) (P08631 78-138): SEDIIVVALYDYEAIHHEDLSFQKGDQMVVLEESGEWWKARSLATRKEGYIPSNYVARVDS
Sequence of wild-type mouse Hck SH3 domain (mouse) (P08103 76-136): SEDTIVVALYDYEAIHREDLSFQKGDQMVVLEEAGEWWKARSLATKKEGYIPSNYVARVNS

HIV-1 Nef-Consensus, untagged
Kd [1]: 20 nM
koff [1]: 0.0324 s⁻¹
kon [1]: 1.57e+06 M⁻¹ s⁻¹
Kd [2]: 120 nM
koff [2]: 0.118 s⁻¹
kon [2]: 1e+06 M⁻¹ s⁻¹
Kd [3]: 80 nM
koff [3]: 0.0185 s⁻¹
kon [3]: 241000 M⁻¹ s⁻¹
fold decrease in SH3 unfolding rate with Nef (slowdown factor) [4]: 50 fold
fold decrease in SH3 unfolding rate with Nef (slowdown factor) [5]: 5.7 fold

HIV-1 Nef-SF2, untagged (from UniProt P03407) (natural protein)
Kd [1]: 10 nM
koff [1]: 0.0143 s⁻¹
kon [1]: 1.42e+06 M⁻¹ s⁻¹

From paper PMC3328272, “HIV-1 Nef interaction influences the ATP-binding site of the Src-family kinase, Hck” (BMC Chemical Biology, 2012)
